Measured values from the supplement of paper PMC6757056.
± gives the standard deviation of the averaged measurements.

B1: library; a variant is named by its letters at N, in order (parent)
chain: GCUGUCACCGGUGCUUGGUACGUUAUAUUCAGCCGGUCUGAUGAGUCUNNNNNNAGACGAAACAGC

Experiments:
(6R,S)-folinic acid [1] = variants of: B1; experiment: FACS-Seq fitted mean relative fluorescence mCherry/BFP without ligand (log10 relative fluorescence); HEK293T overexpressing SLC46A1; higher = higher reporter protein expression; conditions: without (6R,S)-folinic acid; ligand present: no
In short: (§1)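 The ribozyme switch sat in an mCherry reporter, delivered by lentivirus into HEK293T libraries along with an EF1α-BFP marker. Enriched cells were incubated 48 h with or without ligand, sorted into 6 bins by mCherry/BFP, and bin genomic DNA was PCR-amplified, barcoded and MiSeq-sequenced. Fluorescence equals the fitted normal mean of the bin counts after normalization. Those log10(mCherry/BFP) means were scaled to five spiked-in control ribozymes.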

(6R,S)-folinic acid [2] = variants of: B1; experiment: normalized RNA/DNA level without ligand (relative to sTRSVctl = 100) (log10 (% of sTRSVctl)); HEK293T overexpressing SLC46A1; higher = less ribozyme self-cleavage, higher mRNA level; conditions: without (6R,S)-folinic acid; ligand present: no
In short: (§2)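 Only sequences with at least 100 DNA reads were analyzed, from HEK293T cells transfected with 4 µg per 6-well well of ribozyme switch library plasmids 72 h before RNA extraction with EDTA. Any ligand was added 1 h before transfection. RNA level was defined as RNA over DNA reads, normalized to a spiked-in non-cleaving sequence or to the top sequences, then scaled and log-transformed. The top set was 25 sequences, and the scaling was ×100 followed by log10.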

(6R,S)-folinic acid [3] = variants of: B1; experiment: FACS-Seq fitted mean relative fluorescence mCherry/BFP with ligand (log10 relative fluorescence); HEK293T overexpressing SLC46A1; ligand concentration (+) FACS-Seq: 6 mM; higher = higher reporter protein expression; conditions: with (6R,S)-folinic acid; ligand present: yes
In short: as §1

(6R,S)-folinic acid [4] = variants of: B1; experiment: normalized RNA/DNA level with ligand (relative to sTRSVctl = 100) (log10 (% of sTRSVctl)); HEK293T overexpressing SLC46A1; ligand concentration (+) RNA-Seq: 6 mM; higher = less ribozyme self-cleavage, higher mRNA level; conditions: with (6R,S)-folinic acid; ligand present: yes
In short: as §2

Variant	FACS-Seq fitted mean (log10) ((6R,S)-folinic acid [1])	normalized RNA/DNA level without ligand (log10) ((6R,S)-folinic acid [2])	FACS-Seq fitted mean (log10) ((6R,S)-folinic acid [3])	normalized RNA/DNA level with ligand (log10) ((6R,S)-folinic acid [4])
GAUGCA	0.5601 ± 0.0038	2.009 ± 0.0054	0.5189 ± 0.004	2.04 ± 0.035
GGAAAA	0.526 ± 0.051	1.983 ± 0.011	0.455 ± 0.15	2.04 ± 0.041
GUGUGA	0.383 ± 0.041	1.9667 ± 0.00054	0.136 ± 0.21	2.038 ± 0.013
CAGGUG	0.231 ± 0.12	1.96 ± 0.025	0.385 ± 0.089	1.992 ± 0.016
GACGGU	0.318 ± 0.049	1.994 ± 0.016	0.486 ± 0.32	2.01 ± 0.029
UGUAUU	0.438 ± 0.16	1.9737 ± 0.0017	0.253 ± 0.086	2.01 ± 0.032
GGACUA	0.287 ± 0.07	1.989 ± 0.0053	0.202 ± 0.044	1.97 ± 0.033
GAAGUG	0.327 ± 0.098	1.8629 ± 0.0002	0.369 ± 0.033	1.99 ± 0.026
UCUCGU	0.148 ± 0.028	1.9916 ± 0.0016	-0.0695 ± 0.1	2.012 ± 0.013
UUGUUA	0.514 ± 0.052	2.03 ± 0.014	0.793 ± 0.16	2.07 ± 0.031
UAUUAA	-0.696 ± 0.074	1.946 ± 0.0091	-0.811 ± 0.25	1.98 ± 0.037
UAUUAC	0.106 ± 0.011	1.984 ± 0.0099	0.38 ± 0.24	2 ± 0.035
UAGAUG	0.3 ± 0.084	1.702 ± 0.0024	0.477 ± 0.13	1.97 ± 0.043
AUCGAC	0.0463 ± 0.0065	2.041 ± 0.0079	0.0476 ± 0.024	2.01 ± 0.03
GUCCCC	-0.921 ± 0.05	2.022 ± 0.014	-1.94 ± 0.26	1.995 ± 0.0047
UACAAG	0.55 ± 0.1	1.74 ± 0.032	0.813 ± 0.031	1.94 ± 0.032
GAGGCA	0.286 ± 0.031	2.017 ± 0.0044	0.296 ± 0.25	2.05 ± 0.026
AAAUGG	0.445 ± 0.096	1.87 ± 0.0028	0.499 ± 0.072	2 ± 0.031

Variant	FACS-Seq fitted mean (log10) ((6R,S)-folinic acid [1])	normalized RNA/DNA level without ligand (log10) ((6R,S)-folinic acid [2])	FACS-Seq fitted mean (log10) ((6R,S)-folinic acid [3])	normalized RNA/DNA level with ligand (log10) ((6R,S)-folinic acid [4])
UGAGUA	0.204 ± 0.015	1.911 ± 0.0073	0.422 ± 0.1	2 ± 0.043
GGCCAU	0.522 ± 0.091	2.05 ± 0.023	0.337 ± 0.19	2.01 ± 0.063
UGUCCA	0.433 ± 0.12	2.02 ± 0.025	0.395 ± 0.04	2.024 ± 0.014
GUACGG	0.245 ± 0.024	1.953 ± 0.0076	0.584 ± 0.19	2.03 ± 0.032
ACGGGA	0.247 ± 0.026	1.941 ± 0.0036	0.471 ± 0.17	2.01 ± 0.038
AGGUGG	0.777 ± 0.14	1.977 ± 0.0086	0.549 ± 0.26	2.05 ± 0.045
GAUUGU	0.143 ± 0.011	1.995 ± 0.0038	0.365 ± 0.11	2.024 ± 0.0059
GCAGAU	0.24 ± 0.072	1.958 ± 0.011	0.319 ± 0.16	2.02 ± 0.035
CUUUUC	0.721 ± 0.2	2.06 ± 0.023	0.481 ± 0.091	2.02 ± 0.036
UAAAAU	0.0871 ± 0.034	1.941 ± 0.016	0.075 ± 0.078	1.97 ± 0.036
GUUUGU	0.326 ± 0.024	2.03 ± 0.034	0.672 ± 0.18	2.034 ± 0.014
UAAAUG	0.33 ± 0.034	1.7477 ± 0.001	0.685 ± 0.3	1.95 ± 0.039
GGGCGG	0.0567 ± 0.099	2.07 ± 0.027	0.485 ± 0.0056	2.06 ± 0.045
UCCAGG	0.587 ± 0.23	1.976 ± 0.011	0.559 ± 0.28	2.01 ± 0.056
UUACUG	-0.466 ± 0.24	1.902 ± 0.011	-0.804 ± 0.28	2.01 ± 0.066
UGGAGU	0.504 ± 0.12	1.894 ± 0.0062	0.658 ± 0.037	1.99 ± 0.035
UGGAGA	0.189 ± 0.11	1.83 ± 0.026	0.388 ± 0.12	2.01 ± 0.044
